Results published in patent publication US20150183884A1 (NATIONAL HEALTH RESEARCH INSTITUTES, published 2015).

Columns and labels:
BSA = target: T1, BSA (bovine, UniProt P02769); assay: ELISA, BSA as background
T1 construct: also called BSA background
Text: This reaction solution was subjected to 2% agarose gel electrophoresis to analyze the reaction products. Reaction products with the correct molecular weights were ligated into a pCR 2.1-TOPO vector (manufactured by Invitrogen) for subcloning in accordance with the attached instruction manual. M13 forward (5′-[…]-3′(SEQ ID NO: 11) and M13 reverse (5′-CAG GAAACA GCT ATG AC-3′ (SEQ ID NO: 12)) primers were then used to determine the nucleotide sequence. Every mutation clone with the correct sequences was digested with restriction enzymes BamHI and XhoI, and the digestion products were subjected to 2% agarose gel electrophoresis. The insertion fragment of each mutant was cut from the agarose gel and purified with a Gene Clean Kit in accordance with the attached instruction manual provided by the manufacturer (BIO101). The BamHI and XhoI DNA fragment of each mutant was ligated to the BamHI and XhoI sites of an E. coli expression vector pTRC His A (Invitrogen). The resulting plasmid was transformed into E. coli BL21 Rosseta. The ENO1 mutation protein was expressed in E. coli by IPTG induction and purified by Ni-agarose in accordance with the attached instruction manual provided by the manufacturer (Qiagen) after the bacteria pellet was sonicated. The purity of each mutant was analyzed by 12% SDS PAGE. […] The binding affinity was determined by the readings of OD 405. […]

[1] = target: ENO1 deletion Δ297-434 mutant (human) (UniProt P06733); assay: ELISA on coated ENO1 protein or mutant, 10 microgram EN10 mAb
[2] = target: ENO1 deletion mutant Δ1-297 (human) (UniProt P06733); assay: ELISA on coated mutant protein, 10 microgram EN10 mAb
[3] = target: ENO1 deletion mutant Δ1-189 (human) (UniProt P06733); assay: as above

Chain of ENO1 deletion Δ297-434 mutant (human) (P06733 1-296, stated change not applied): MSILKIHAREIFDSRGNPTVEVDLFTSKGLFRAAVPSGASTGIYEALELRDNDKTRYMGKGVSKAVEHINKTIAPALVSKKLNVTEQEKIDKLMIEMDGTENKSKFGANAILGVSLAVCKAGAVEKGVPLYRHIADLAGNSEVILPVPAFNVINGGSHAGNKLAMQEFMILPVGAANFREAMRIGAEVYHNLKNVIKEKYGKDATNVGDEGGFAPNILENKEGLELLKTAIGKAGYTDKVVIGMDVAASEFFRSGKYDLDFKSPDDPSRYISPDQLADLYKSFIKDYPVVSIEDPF
T1 sequence (P02769 25-607 limits assumed): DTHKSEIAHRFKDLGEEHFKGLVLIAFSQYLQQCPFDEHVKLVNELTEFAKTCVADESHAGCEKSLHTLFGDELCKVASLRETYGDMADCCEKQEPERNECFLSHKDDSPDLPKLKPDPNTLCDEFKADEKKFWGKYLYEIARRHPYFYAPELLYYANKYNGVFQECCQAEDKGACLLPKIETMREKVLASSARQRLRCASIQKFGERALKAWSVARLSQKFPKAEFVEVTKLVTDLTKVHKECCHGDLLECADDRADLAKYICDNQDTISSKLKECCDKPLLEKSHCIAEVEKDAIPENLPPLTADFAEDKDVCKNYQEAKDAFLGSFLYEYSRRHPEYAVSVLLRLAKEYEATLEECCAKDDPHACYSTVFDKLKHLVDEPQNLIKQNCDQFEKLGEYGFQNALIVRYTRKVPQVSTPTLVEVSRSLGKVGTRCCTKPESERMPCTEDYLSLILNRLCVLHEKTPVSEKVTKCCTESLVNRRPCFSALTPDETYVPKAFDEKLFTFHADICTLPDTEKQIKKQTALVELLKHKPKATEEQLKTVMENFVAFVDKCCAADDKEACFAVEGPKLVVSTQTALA

OD450 [1]: 0.47 | OD405 [2]: 1.56 OD405 | percent of the OD405 of wild type ENO1 [2]: 39% | OD405 [3]: 1.43 OD405 | percent of the OD405 of wild type ENO1 [3]: 42%
B1: EN10 mAb (antibody, V domains shown)
VH: EVQLQQSGPELVKPGASVKMSCKASGYTFTSCVMNWVKQKPGQGLEWIGYINPYNDGTKYNEKFKGKATLTSDKSSSTAYMELSSLTSEDSAVYYCAREGFYYGNFDNWGQGTTLTVSS
VL: DIQMTQSPASLSASVGETVTITCRASENIYSYLTWYQQKQGKSPQLLVYNAKTLPEGVPSRFSGSGSGTQFSLKINSLQPEDFGSYYCQHHYGTPYTFGGGTKLEITR
notes: also called clone 10; anti-human ENO1 antibody clones 10
binding result (BSA): no binding (tested: 10 microgram EN10 mAb (amount))
